Measurements: doi:10.1101/2025.08.13.669967, “Cryo-EM protein structure without purification” (bioRxiv, 2025)

Molecular target: the molecule itself
Assay: native gel or EMSA; Native PAGE of the 25 µl PURE cell-free expression reaction with FluoroTect GreenLys fluorescent detection, compared to a no plasmid DNA control

B1: Arabidopsis thaliana Pyridoxal 5'-phosphate synthase-like subunit PDX1.2 (natural protein, UniProt Q9ZNR6 1-314, looked up)
chain: MADQAMTDQDQGAVTLYSGTAITDAKKNHPFSVKVGLAQVLRGGAIVEVSSVNQAKLAESAGACSVIVSDPVRSRGGVRRMPDPVLIKEVKRAVSVPVMARARVGHFVEAQILESLAVDYIDESEIISVADDDHFINKHNFRSPFICGCRDTGEALRRIREGAAMIRIQGDLTATGNIAETVKNVRSLMGEVRVLNNMDDDEVFTFAKKISAPYDLVAQTKQMGRVPVVQFASGGITTPADAALMMQLGCDGVFVGSEVFDGPDPFKKLRSIVQAVQHYNDPHVLAEMSSGLENAMESLNVRGDRIQDFGQGSV
modifications: translation mixture supplemented with FluoroTect GreenLys reagent (fluorescent detection)
notes: Pyridoxal 5'-phosphate synthase-like subunit PDX1.2 of Arabidopsis thaliana, Uniprot Q9ZNR6; synthetic gene (Genscript) in the pT7-DHFR Control plasmid in place of DHFR (NdeI/NotI); source: PURE (PureExpress In Vitro Protein Synthesis kit, New England Biolabs) cell-free expression, 25 µl reaction; in crude lysate or after small-scale clean-up (spin filter, benzonase, reverse His-purification); …
stoichiometry N: 12
